In patent US20170304361A1:

biological target: Insulin Receptor (Isoform B by the title of Table 1; 'the A isoform of the insulin receptor' by the text) (UniProt P06213); assay: competitive displacement of radiolabelled tracer; relative to wild-type human insulin

Question: “GluA8 derivative of AspB10, 2F-PheB24, LysB28, ProB29-human insulin (T-0338) (ligand)” was tested. Which relative affinity did it give?
Answer: 52%

Question: With “GluA8 derivative of AspB10, ortho-fluoro-PheB24, GluB29-insulin (T-0339) (ligand)” as the substance, how does the relative affinity read?
Answer: 43%

Question: How did the relative affinity turn out when “GluA8, GlyA21 derivative of AspB10, 2F-PheB24, GluB29-human insulin (T-0348) (ligand)” was run?
Answer: 44%

Question: With “GlyA21 derivative of AspB10, 2F-PheB24, LysB28, ProB29-human insulin (T-0346) (ligand)” as the substance, how does the relative affinity read?
Answer: 59%

Question: How did the relative affinity turn out when “GlyA21 derivative of AspB10, ortho-fluoro-PheB24, GluB29-insulin (T-0347) (ligand)” was run?
Answer: 42%
